Results published in patent US20160031986A1.

molecular target: cynomolgus monkey DLL4 extracellular domain (cynomolgus monkey); assay: Biacore SPR

Binder | Kd | koff | kon
38H12 rat monoclonal antibody (antibody, V domains shown) VH: EVQLVESGGGLVQPGRSLKLSCAASGFTFSNYGMYWIRQAPTKGLQWVAFISHGGGITYYRDSVKGRFTISRDNAKSTLYLQMDSLRSEDTATYHCAALNWELGIDYWGQGVMVTVSS VL: DIQMTQSPASLSASLGETISIECRASEDIYSNLAWYQKKSGKSPQLLIYAANRLQDGVPSRFSGSGSGTQYSLKISGMQPEDEGDYFCLQGSKFPLTFGSGTKLEIKR | 0.4 nM | 9.8e-05 s⁻¹ | 260000 M⁻¹ s⁻¹
1A11 rat monoclonal antibody (antibody, V domains shown) VH: EVQLVESGGGLVQPGRSMKLSCAASGFTFRNFPMAWVRQAPTRGLEWVATISSSDGTTYYRDSVKGRFTISRDNAKSTLYLQVNSLRSEDTATYYCSRGYYNSPFAYWGQGTLVTVSS VL: DIQMTQSPASLSASLGETVTIECRASEDIYSNLAWYQQKPGNSPQLLIFDTNNLADGVPSRFSGSGSGTQSSLKINSLQSEDVASYFCQQYNNYPPTFGGGTKLELKR | 8.1 nM | 0.00093 s⁻¹ | 110000 M⁻¹ s⁻¹
37D10 rat monoclonal antibody (antibody, V domains shown) VH: AVQLVESGGGLVQPKESLKISCAASGFTFSNAAMYWVRLAPGKGLEWVARIRTKPNNYATYYAESVKGRFTISRDDSKSMVYVQMDNLKTEDTAMYYCTAAPWRDSYAHVYWGQGVMVTVSS VL: DIQMTQSPPVLSASVGDRVTLSCKASQNIHKNLDWYQQKHGDAPKLLIYYTDHLQTGVPSRFSGSGSATDYTLTISSLQPEDVATYYCYQYNGGPFTFGSGTKLEIKR | < 617 nM |  | 40000 M⁻¹ s⁻¹
32C7 rat monoclonal antibody (antibody, V domains shown) VH: EVQLVESGGGLVQPGRSLKLSCLASGFPFSSVWMTWIRQAPGKGLEWIATITNSGASTYYSASVKGRFTISRDNVKSTLYLQMTSLGSEDTATYYCTRVGTSFDYWGQGVMVTVSS VL: DIQMTQSPASLSASLGETVTIECRASDDIYNGLAWFQQKPGKSPQLLIYDANTLHTGVPSRFSGSGSGTQFSLKINSLQSEDVASYFCQQFYDYPPYTFGAGTKLELKR | 0.03 nM | 6.3e-06 s⁻¹ | 220000 M⁻¹ s⁻¹
15D6 rat monoclonal antibody (antibody, V domains shown) VH: EVQLQQSGPELAKPGSSVKISCKASGYTFTSSYISWIKQTTGQGLEYIGYINTGSGGTDYNEKFKDKATLTVDKSSRTVFMQLSSLTPGDSAVYYCAKSILLGSTYYLDYWGQGVMVTVSS VL: DTVLTQSPALAVSLGQRVTISCKASRSLSSPMYSYIYWYQQKLGQQPRLLIYRASTLASGVPARFSGSGSGTDFTLNIDPVEADDIATYFCQQSWSDPFTFGSGTKLEIKR | 14.9 nM | 0.00083 s⁻¹ | 56000 M⁻¹ s⁻¹
14A11 rat monoclonal antibody (antibody, V domains shown) VH: EVQLQQSGPELAKPGSSVKISCKASGYTFTNSYISWIKQTTGQGLEYVGYINTGSGGADYNEKFKGKATLTVDKSSRTAFMQLSSLTPGDSAVYYCAKSILLGSTCYFDYWGQGVLVTVSS VL: NTVLTQSPALAVSLGQRVTISCKASRSVSSPMYSYIYWYQQKPGQQPKLLIYRASTLASGVPARFSGSGSGTDFTLNIDPVEADDIATYFCQQSWSDPFTFGSGTKLEIKR | 11.6 nM | 0.0012 s⁻¹ | 110000 M⁻¹ s⁻¹
14G1 rat monoclonal antibody (antibody, V domains shown) VH: EVQLQQSGAELAKPGSSVKISCKASGYTFTNYDISWIKQTNGQGLEYLGYINTGSGGIYSNEKFKGKATLTVDKSSNTAFMQLSSLTPEDTAVYYCVREGNNFDHWGQGVKVTVSS VL: DTVMTQSPASMSTSVGERVTVNCKASQSVGTIVAWFQQKPGQSPKRLIYLATYRHTGVPDRFIGSGFGRDFTLTISNVEAEDLAVYYCLQYGSRPFTFGAGTKLEIKR | 10.5 nM | 0.00041 s⁻¹ | 39000 M⁻¹ s⁻¹

molecular target: cynomolgus monkey DLL4 extracellular domain (cynomolgus monkey); assay: binding ELISA

Binder | EC50
h1A11.2 (antibody, V domains shown) VH: EVQLVESGGGLVQPGGSLRLSCAASGFTFSNFPMAWVRQAPGKGLEWVATISSSDGTTYYRDSVKGRFTISRDNAKNSLYLQMNSLRAEDTAVYYCARGYYNSPFAYWGQGTLVTVSS VL: DIQMTQSPSSLSASVGDRVTITCRASEDIYSNLAWYQQKPGKSPKLLIFDTNNLADGVPSRFSGSGSGTDSTLTISSLQPEDFATYFCQQYNNYPPTFGQGTKLEIKR | 0.13 nM
h1A11.3 (antibody, V domains shown) VH: EVQLVESGGGLVQPGGSLRLSCAASGFTFSNFPMAWVRQAPGKGLEWVATISSSDGTTYYRDSVKGRFTISRDNAKNSLYLQMNSLRAEDTAVYYCARGYYNSPFAYWGQGTLVTVSS VL: DIQMTQSPSSLSASVGDRVTITCRASEDIYSNLAWYQQKPGKAPKLLIFDTNNLADGVPSRFSGSGSGTDFTLTISSLQPEDFATYYCQQYNNYPPTFGQGTKLEIKR | 0.16 nM
h1A11.4 (antibody, V domains shown) VH: EVQLVESGGGLVQPGGSLRLSCAASGFTFSNFPMAWVRQAPGKGLEWVATISSSDGTTYYRDSVKGRFTISRDNAKNSLYLQMNSLRAEDTAVYYCARGYYNSPFAYWGQGTLVTVSS VL: EIVMTQSPATLSVSPGERATLSCRASEDIYSNLAWYQQKPGQSPRLLIFDTNNLADGVPARFSGSGSGTESTLTISSLQSEDFAVYFCQQYNNYPPTFGQGTKLEIKR | 0.17 nM
h1A11.5 (antibody, V domains shown) VH: EVQLVESGGGLVQPGGSLRLSCAASGFTFSNFPMAWVRQAPGKGLEWVATISSSDGTTYYRDSVKGRFTISRDNAKSSLYLQMNSLRAEDTAVYYCSRGYYNSPFAYWGQGTLVTVSS VL: DIQMTQSPSSLSASVGDRVTITCRASEDIYSNLAWYQQKPGKAPKLLIYDTNNLADGVPSRFSGSGSGTDFTLTISSLQPEDFATYYCQQYNNYPPTFGQGTKLEIKR | 0.16 nM
h1A11.6 (antibody, V domains shown) VH: EVQLVESGGGLVQPGGSLRLSCAASGFTFSNFPMAWVRQAPGKGLEWVATISSSDGTTYYRDSVKGRFTISRDNAKSSLYLQMNSLRAEDTAVYYCSRGYYNSPFAYWGQGTLVTVSS VL: DIQMTQSPSSLSASVGDRVTITCRASEDIYSNLAWYQQKPGKSPKLLIFDTNNLADGVPSRFSGSGSGTDSTLTISSLQPEDFATYFCQQYNNYPPTFGQGTKLEIKR | 0.13 nM
h1A11.7 (antibody, V domains shown) VH: EVQLVESGGGLVQPGGSLRLSCAASGFTFSNFPMAWVRQAPGKGLEWVATISSSDGTTYYRDSVKGRFTISRDNAKSSLYLQMNSLRAEDTAVYYCSRGYYNSPFAYWGQGTLVTVSS VL: DIQMTQSPSSLSASVGDRVTITCRASEDIYSNLAWYQQKPGKAPKLLIFDTNNLADGVPSRFSGSGSGTDFTLTISSLQPEDFATYYCQQYNNYPPTFGQGTKLEIKR | 0.14 nM
h1A11.8 (antibody, V domains shown) VH: EVQLVESGGGLVQPGGSLRLSCAASGFTFSNFPMAWVRQAPGKGLEWVATISSSDGTTYYRDSVKGRFTISRDNAKSSLYLQMNSLRAEDTAVYYCSRGYYNSPFAYWGQGTLVTVSS VL: EIVMTQSPATLSVSPGERATLSCRASEDIYSNLAWYQQKPGQSPRLLIFDTNNLADGVPARFSGSGSGTESTLTISSLQSEDFAVYFCQQYNNYPPTFGQGTKLEIKR | 0.17 nM
h1A11.9 (antibody, V domains shown) VH: EVQLVESGGGLVQPGGSLRLSCAASGFTFSNFPMAWVRQAPGKGLEWVATISSSDGTTYYRDSVKGRFTISRDNAKNSLYLQMNSLRAEDTAVYYCSRGYYNSPFAYWGQGTLVTVSS VL: DIQMTQSPSSLSASVGDRVTITCRASEDIYSNLAWYQQKPGKAPKLLIYDTNNLADGVPSRFSGSGSGTDFTLTISSLQPEDFATYYCQQYNNYPPTFGQGTKLEIKR | 0.15 nM
h1A11.10 (antibody, V domains shown) VH: EVQLVESGGGLVQPGGSLRLSCAASGFTFSNFPMAWVRQAPGKGLEWVATISSSDGTTYYRDSVKGRFTISRDNAKNSLYLQMNSLRAEDTAVYYCSRGYYNSPFAYWGQGTLVTVSS VL: DIQMTQSPSSLSASVGDRVTITCRASEDIYSNLAWYQQKPGKSPKLLIFDTNNLADGVPSRFSGSGSGTDSTLTISSLQPEDFATYFCQQYNNYPPTFGQGTKLEIKR | 0.15 nM
h1A11.11 (antibody, V domains shown) VH: EVQLVESGGGLVQPGGSLRLSCAASGFTFSNFPMAWVRQAPGKGLEWVATISSSDGTTYYRDSVKGRFTISRDNAKNSLYLQMNSLRAEDTAVYYCSRGYYNSPFAYWGQGTLVTVSS VL: DIQMTQSPSSLSASVGDRVTITCRASEDIYSNLAWYQQKPGKAPKLLIFDTNNLADGVPSRFSGSGSGTDFTLTISSLQPEDFATYYCQQYNNYPPTFGQGTKLEIKR | 0.15 nM
h1A11.12 (antibody, V domains shown) VH: EVQLVESGGGLVQPGGSLRLSCAASGFTFSNFPMAWVRQAPGKGLEWVATISSSDGTTYYRDSVKGRFTISRDNAKNSLYLQMNSLRAEDTAVYYCSRGYYNSPFAYWGQGTLVTVSS VL: EIVMTQSPATLSVSPGERATLSCRASEDIYSNLAWYQQKPGQSPRLLIFDTNNLADGVPARFSGSGSGTESTLTISSLQSEDFAVYFCQQYNNYPPTFGQGTKLEIKR | 0.16 nM
h1A11.13 (antibody, V domains shown) VH: EVQLVESGGGLVQPGGSLRLSCAASGFTFSNFPMAWVRQAPGKGLEWVATISSSDGTTYYRDSVKGRFTISRDNSKSTLYLQMNSLRAEDTAVYYCSRGYYNSPFAYWGQGTLVTVSS VL: DIQMTQSPSSLSASVGDRVTITCRASEDIYSNLAWYQQKPGKAPKLLIYDTNNLADGVPSRFSGSGSGTDFTLTISSLQPEDFATYYCQQYNNYPPTFGQGTKLEIKR | 0.16 nM
h1A11.14 (antibody, V domains shown) VH: EVQLVESGGGLVQPGGSLRLSCAASGFTFSNFPMAWVRQAPGKGLEWVATISSSDGTTYYRDSVKGRFTISRDNSKSTLYLQMNSLRAEDTAVYYCSRGYYNSPFAYWGQGTLVTVSS VL: DIQMTQSPSSLSASVGDRVTITCRASEDIYSNLAWYQQKPGKSPKLLIFDTNNLADGVPSRFSGSGSGTDSTLTISSLQPEDFATYFCQQYNNYPPTFGQGTKLEIKR | 0.14 nM
h1A11.15 (antibody, V domains shown) VH: EVQLVESGGGLVQPGGSLRLSCAASGFTFSNFPMAWVRQAPGKGLEWVATISSSDGTTYYRDSVKGRFTISRDNSKSTLYLQMNSLRAEDTAVYYCSRGYYNSPFAYWGQGTLVTVSS VL: DIQMTQSPSSLSASVGDRVTITCRASEDIYSNLAWYQQKPGKAPKLLIFDTNNLADGVPSRFSGSGSGTDFTLTISSLQPEDFATYYCQQYNNYPPTFGQGTKLEIKR | 0.13 nM
